Publication PMC9513256
Primed or numbered codes have the meaning given here. Where no end group is shown, it is not given here. PEG2′ = not defined here

Target: Hedgehog acyltransferase (Hhat), triple tagged (HA-FLAG-His) WT (UniProt Q5VTY9)
Sequence of UniProt Q5VTY9 (Q5VTY9 whole entry): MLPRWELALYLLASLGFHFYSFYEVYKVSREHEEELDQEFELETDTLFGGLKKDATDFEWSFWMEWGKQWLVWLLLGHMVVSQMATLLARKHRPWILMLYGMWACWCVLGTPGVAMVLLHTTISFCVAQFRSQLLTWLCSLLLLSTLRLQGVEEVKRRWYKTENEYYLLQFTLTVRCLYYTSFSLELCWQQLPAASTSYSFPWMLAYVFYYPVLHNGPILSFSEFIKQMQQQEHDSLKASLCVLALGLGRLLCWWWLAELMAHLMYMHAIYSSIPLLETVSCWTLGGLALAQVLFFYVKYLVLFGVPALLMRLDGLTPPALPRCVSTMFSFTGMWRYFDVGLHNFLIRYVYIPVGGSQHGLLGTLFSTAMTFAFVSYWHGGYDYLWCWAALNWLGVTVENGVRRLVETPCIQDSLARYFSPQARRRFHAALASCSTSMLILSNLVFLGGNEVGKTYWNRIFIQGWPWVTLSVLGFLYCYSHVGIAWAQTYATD

B1: biotinylated WT Shh peptide, …-(PEG2)-K(Biotin)-NH2 (peptide)
peptide: CGPGRGFGKR-{PEG2′-K(Biotin)-NH2}
  apparent Km for Shh peptide, Hhat-mediated NBD-fatty acylation of Shh peptide (initial rates, 10 min, 37 °C), Shh titrated in the presence of 25 μM NBD-myristoyl-CoA (14:0): 10.7 μM Shh
  apparent Km for Shh peptide, Hhat-mediated NBD-fatty acylation of Shh peptide (initial rates, 10 min, 37 °C), Shh titrated in the presence of 25 μM NBD-oleoyl-CoA (18:1): 19.7 μM Shh
  apparent Km for Shh peptide, Hhat-mediated NBD-fatty acylation of Shh peptide (initial rates, 10 min, 37 °C), Shh titrated in the presence of 25 μM NBD-palmitoleoyl-CoA (16:1): 5 μM Shh
  apparent Km for Shh peptide, Hhat-mediated NBD-fatty acylation of Shh peptide (initial rates, 10 min, 37 °C), Shh titrated in the presence of 25 μM NBD-palmitoyl-CoA (16:0): 10.4 μM Shh
